# T1: 10 AA stub (a.a. 294-303 of SEQ ID NO: 247) (human)
# T1 peptide: LDLSMQEALS
# T2: 12 AA stub region peptide LVLDLSMQEALS (human)
# T2 construct: free N-terminus; also called 12 AA Peptide
# T2 peptide: LVLDLSMQEALS
# T3: 7 AA stub (a.a. 297-303 of SEQ ID NO: 247) (human)
# T3 peptide: SMQEALS
# T4: 14 AA stub (a.a. 290-303 of SEQ ID NO: 247) (human)
# T4 peptide: GYLVLDLSMQEALS
# T5: 9 AA stub (a.a. 295-303 of SEQ ID NO: 247) (human)
# T5 peptide: DLSMQEALS
# T6: 13 AA stub (a.a. 291-303 of SEQ ID NO: 247) (human)
# T6 peptide: YLVLDLSMQEALS
# T7: 11 AA stub (a.a. 293-303 of SEQ ID NO: 247) (human)
# T7 peptide: VLDLSMQEALS
# T8: 8 AA stub (a.a. 296-303 of SEQ ID NO: 247) (human)
# T8 construct: also called 8 AA Peptide; peptide of the last 8 C-terminal amino acids
# T8 peptide: LSMQEALS
# What was measured:
# [1] = target: T9, CD3 epsilon on human T-cells (human, UniProt P07766 23-207); assay: T cell binding
# T9 construct: part of the TCR-CD3 complex on T cells; also called CD3 on T cells
# [2] = target: T10, recombinant CD3 (UniProt P07766 23-126); assay: SPR; lower end of the range
# T10 construct: also called CD3 (SPR)
# [3] = target: T10, recombinant CD3; assay: SPR; upper end of the range
# [4] = target: T1, 10 AA stub (a.a. 294-303 of SEQ ID NO: …); assay: SPR, mAb captured, peptide injected
# Experimental: (§1) The binding was assessed by SPR. Briefly, GAH-Fc was used to capture mAbs on C4 sensor chip followed by antigen injection starting at 30 nM (14 amino acid stub), 100 nM (10-13 amino acid stubs), or 1000 nM (7-9 amino acid stubs) progressing in a 3-fold dilution series in single cycle kinetics mode. HBSP+0.01% BSA was used in the assay.
# [5] = target: T2, 12 AA stub region peptide LVLDLSMQEALS; assay: SPR, mAb captured, peptide injected
# Experimental: as §1
# [6] = target: T3, 7 AA stub (a.a. 297-303 of SEQ ID NO: …); assay: SPR, mAb captured, peptide injected
# Experimental: as §1
# [7] = target: T4, 14 AA stub (a.a. 290-303 of SEQ ID NO: …); assay: SPR, mAb captured, peptide injected
# Experimental: as §1
# [8] = target: T5, 9 AA stub (a.a. 295-303 of SEQ ID NO: …); assay: SPR, mAb captured, peptide injected
# Experimental: as §1
# [9] = target: T6, 13 AA stub (a.a. 291-303 of SEQ ID NO: …); assay: SPR, mAb captured, peptide injected
# Experimental: as §1
# [10] = target: T7, 11 AA stub (a.a. 293-303 of SEQ ID NO: …); assay: SPR, mAb captured, peptide injected
# Experimental: as §1
# [11] = target: T11, MSNW10, recombinant full length human MSLN (human, UniProt Q13421 296-598); assay: SPR, recombinant full-length human MSLN
# T11 construct: also called MSNW10.002; FL-MSLN
# [12] = target: T12, MSNW11, recombinant soluble (shed) MSLN lacking the C-terminal 7 AAs (human, UniProt Q13421 296-591); assay: H838 cell binding with shed MSLN (MSNW11) added
# T12 construct: domain: soluble MSLN lacking the C-terminal 7 AAs; also called MSNW11.002; soluble MSLN
# Source text: Table 16 lists the immunization campaigns, antigens used, and number of clones returned at each stage of screening. Clones from which antibody sequences were successfully recovered were first screened for binding to recombinant full length human MSLN (MSNW10) and H838 cells that express MSLN on the cell surface. Binders were further screened for binding to cells in the presence of recombinant soluble MSLN lacking the C-terminal 7 AAs (MSNW11). This form of recombinant MSLN represented the product of cleavage at the closest cleavage site to the C-terminus known at the time, therefore, it theoretically represented the longest form of shed MSLN. The final concentration of shed MSLN in the assays was 100 nM.
# [13] = target: T13, human MSLN on the cell surface (human, UniProt Q13421 296-598); assay: high content imaging, surface staining of OVCAR8 cells
# T13 construct: on cells stands the processed GPI-anchored 40 kDa MSLN; also called membrane MSLN; MSLN on H838, OVCAR-8 (OVCAR8), OVCAR-8 K1/C8, SK-OV-3 cells
# Experimental: OVCAR8 cells were cultured in RPMI 1640 medium supplemented with 10% FCS, 1% L-glutamine and 1% Gentamycin and seeded in Greiner CELLSTAR plate one day before experiment. 24 h after seeding, antibody mixture was prepared by diluting MSLN and control antibodies in Table 21 in full media containing CellMask™ Deep Red Plasma Membrane Stain (ThermoFisher, C10046) in 12 concentrations each with 3 folds dilution starting from 20 μg/ml and 20 μl of which were added directly to the cells in 20 μl. Antibodies were allowed for binding to the cell surface for 2h inside the incubator (37°) C. and the surface bound antibodies were fixed for 15 min at RT by directly adding 30 ul of 10% Formaldehyde (04018-1, Polysciences). Afterwards residual Formaldehyde was removed by washing the cells twice with PBS and the primary antibodies were stained with secondary antibodies (Alexa Fluor 488 goat anti-human IgG, Invitrogen, A11013) complemented with Hoechst 33342 (H3570, ThermoFisher) and HCS CellMask™ Deep Red Stain (ThermoFisher, H32721) in PBS for 1h at RT. After removing unbound antibodies and other dyes by washing the cells 3 times with PBS cells were imaged on the CellVoyager 7000 (Yokogawa, Tokyo, Japan) using a 40×/0.95 objective. Of each well, 9 fields were imaged. Image analysis was performed with Acapella (PerkinElmer, Waltham, MA, USA) and the results stored in Phaedra (OpenAnalytics, Antwerp, Belgium). Data analysis was done in R (www.r-project.org).
# The data was then fitted using the four-parameter logistic using least-squares regression, keeping the lower boundary fixed at 0.
# T13 sequence (Q13421 other isoform, or with tags, fused parts or gaps limits assumed): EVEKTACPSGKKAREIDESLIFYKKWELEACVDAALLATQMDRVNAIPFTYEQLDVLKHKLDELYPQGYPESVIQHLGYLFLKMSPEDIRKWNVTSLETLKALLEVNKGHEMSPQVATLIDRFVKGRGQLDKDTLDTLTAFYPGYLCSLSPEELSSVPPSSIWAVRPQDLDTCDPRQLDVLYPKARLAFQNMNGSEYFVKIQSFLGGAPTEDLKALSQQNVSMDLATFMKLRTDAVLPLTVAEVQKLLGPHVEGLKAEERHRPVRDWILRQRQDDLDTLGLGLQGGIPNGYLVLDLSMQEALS
# [14] = target: huDesmin, recombinant (human, UniProt P17661 1-470, limits assumed); assay: SPR
# [15] = target: T8, 8 AA stub (a.a. 296-303 of SEQ ID NO: …); assay: competition of OVCAR8 cell binding by the peptide
# [16] = target: T8, 8 AA stub (a.a. 296-303 of SEQ ID NO: …); assay: SPR, mAb captured, peptide injected
# Experimental: as §1
# [17] = target: T13, human MSLN on the cell surface; assay: estimated from cell binding, not SPR; upper end of the range
# [18] = target: T11, MSNW10, recombinant full length human …; assay: SPR, additional experiments
# [19] = target: T13, human MSLN on the cell surface; assay: estimated from cell binding, not SPR; lower end of the range
# [20] = target: T10, recombinant CD3; assay: SPR
# [21] = target: human MSLN on the cell surface (human, UniProt Q13421 296-598); assay: flow cytometry (MFI PE) on OVCAR-8 cells
# T10 sequence (P07766 23-126): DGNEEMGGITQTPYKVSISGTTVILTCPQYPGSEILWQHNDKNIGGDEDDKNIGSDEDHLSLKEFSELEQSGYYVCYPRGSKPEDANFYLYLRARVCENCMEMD
# T9 sequence (P07766 23-207 limits assumed): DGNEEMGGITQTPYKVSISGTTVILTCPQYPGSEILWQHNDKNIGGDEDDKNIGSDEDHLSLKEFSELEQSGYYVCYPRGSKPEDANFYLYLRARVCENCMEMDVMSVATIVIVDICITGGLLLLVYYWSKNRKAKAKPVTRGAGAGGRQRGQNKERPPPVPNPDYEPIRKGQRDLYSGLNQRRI
# T12 sequence (Q13421 other isoform, or with tags, fused parts or gaps limits assumed): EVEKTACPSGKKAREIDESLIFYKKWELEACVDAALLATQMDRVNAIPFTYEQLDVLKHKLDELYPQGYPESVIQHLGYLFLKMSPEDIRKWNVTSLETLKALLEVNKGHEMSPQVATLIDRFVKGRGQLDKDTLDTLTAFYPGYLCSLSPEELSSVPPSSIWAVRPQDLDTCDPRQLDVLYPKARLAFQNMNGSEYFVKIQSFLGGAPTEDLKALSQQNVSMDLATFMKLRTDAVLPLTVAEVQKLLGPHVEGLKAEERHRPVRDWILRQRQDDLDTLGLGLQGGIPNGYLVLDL
# Sequence of huDesmin, recombinant (P17661 whole entry): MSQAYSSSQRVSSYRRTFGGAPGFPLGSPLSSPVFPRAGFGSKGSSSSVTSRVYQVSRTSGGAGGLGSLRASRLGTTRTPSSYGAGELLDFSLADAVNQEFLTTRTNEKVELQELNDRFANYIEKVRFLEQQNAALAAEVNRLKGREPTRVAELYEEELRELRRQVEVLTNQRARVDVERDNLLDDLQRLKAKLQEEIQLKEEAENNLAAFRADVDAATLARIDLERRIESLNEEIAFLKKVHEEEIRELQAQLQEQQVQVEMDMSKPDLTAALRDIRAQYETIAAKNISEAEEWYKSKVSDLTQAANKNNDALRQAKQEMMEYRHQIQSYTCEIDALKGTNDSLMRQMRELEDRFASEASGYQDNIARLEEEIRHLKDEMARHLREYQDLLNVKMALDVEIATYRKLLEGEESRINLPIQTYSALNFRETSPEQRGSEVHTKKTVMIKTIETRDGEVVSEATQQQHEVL
Binder,EC50 [1],binding result [4],Kd [5],binding result [6],Kd [7],binding result [8],Kd [9],binding result [10],binding result [12],IC50 [13],Maximum Value (arbitrary units) [13],other results
CD3W245-HL-ScFv (scFv) scFv: EVQLVESGGGLVKPGGSLRLSCAASGFTFSRYNMNWVRQAPGKGLEWVSSISTSSNYIYYADSVKGRFTFSRDNAKNSLDLQMSGLRAEDTAIYYCTRGWGPFDYWGQGTLVTVSSGGSEGKSSGSGSESKSTGGSDIQMTQSPSSLSASVGDRVTITCRARQSIGTAIHWYQQKPGKAPKLLIKYASESISGVPSRFSGSGSGTDFTLTISSLQPEDFATYYCQQSGSWPYTFGQGTKLEIK,1 to 3 nM,,,,,,,,,,,Kd [2]: ≥ 0.5 nM; Kd [3]: ≤ 1 nM
"MSNB71 (antibody, V domains shown, mAb from Ablexis mouse; also called MSNB71.004) VH: QVQLQQSGPGLVMSSQTLSLTCAISGDSVSSSSVAWNWIRQSPSRGLQWLGRTYFRSKWYYDYAVSVKSRITINPDTSKNQFSLQLNSVTPEDTAVYYCSRGIVGALDYWGQGTLVTVSS VL: DIVMTQSPLSLPVTPGEPASISCRSSQSLLFTNGYDSLDWYLQKPGQSPQLLIYLVSNRASGVPDRFSGSGSGTEFTLKISRVEADDVGVYFCMQGIRTPFTFGPGTKLEIK",,no binding (tested: 100 nM),0.692 nM,no binding (tested: 1000 nM),0.364 nM,no binding (tested: 1000 nM),0.469 nM,no binding (tested: 100 nM),no binding (tested: 100 nM),0.0713 mg/L,1.54e+07 arbitrary units,Kd [11]: 0.2 nM; binding result [14]: binds; binding result [15]: no binding
"MSLNB568 (antibody, V domains shown, mAb; also called MSLNB568.001; MSNB568) VH: QVQLQQSGPGLVKPSQTLSLTCGISGDSVSSSSVAWNWIRQSPSRGLEWLGRTYYRSKWYNDYAISVRSRVTINPDTSKNQFSLQLNSVTPEDTAVYYCSRGVVGALDYWGQGTLVTVSS VL: DIVMTQSPLSLTVTPGEPASISCRSSQSLLFTNGYNSLDWYLQKPGQSPQFLIYLVSNRASGVPDRFSGSGSGTDFTLKISRVEAEDVGVYYCMQALRTPYTFGQGTKVEIK",,no binding (tested: 100 nM),2.33 nM,no binding (tested: 1000 nM),1.61 nM,no binding (tested: 1000 nM),2.64 nM,no binding (tested: 100 nM),no binding (tested: 100 nM),0.0764 mg/L,1.7e+07 arbitrary units,binding result [16]: no binding (tested: 1000 nM); Kd [17]: 1 to 5 nM; Kd [18]: 0.5 nM; Kd [19]: 1 to 5 nM
CD3W245-LH-ScFv (scFv) scFv: DIQMTQSPSSLSASVGDRVTITCRARQSIGTAIHWYQQKPGKAPKLLIKYASESISGVPSRFSGSGSGTDFTLTISSLQPEDFATYYCQQSGSWPYTFGQGTKLEIKGGSEGKSSGSGSESKSTGGSEVQLVESGGGLVKPGGSLRLSCAASGFTFSRYNMNWVRQAPGKGLEWVSSISTSSNYIYYADSVKGRFTFSRDNAKNSLDLQMSGLRAEDTAIYYCTRGWGPFDYWGQGTLVTVSS,20 to 50 nM,,,,,,,,,,,Kd [20]: 0.5 to 1 nM
MNC3B192 (bispecific antibody) chain 1: QSALTQPASVSGSPGQSITISCTGTSSNIGTYKFVSWYQQHPGKAPKVMIYEVSKRPSGVSNRFSGSKSGNTASLTISGLQAEDEADYYCVSYAGSGTLLFGGGTKLTVLGGSEGKSSGSGSESKSTGGSQVQLQQSGPGLVKPSQTLSLTCAISGDSVFNNNAAWSWIRQSPSRGLEWLGRTYYRSKWLYDYAVSVKSRITINPDTSKNQFSLQLNSVTPEDTAVYYCARGYSSSFDYWGQGTLVTVSS chain 2: QVQLVESGPGQVKPSQTLSLTCAISGDSVSSNSAAWNWIRQSPSRGLEWLGRTYYRSKWYNDYAVSVKSRITINPDTSKNQFSLQLNSVTPEDTAVYYCARRDYSSGGFDYWGQGTTVTVSS chain 3: not shown,,,,,,,,,,,,EC50 (read off the curve) [21]: ~8 nM
